Numbering of substitutions follows the chain as printed. Names and notes keep the numbering of the source. One block for each binder: values may come before it.
Tests used:
[1] = target: T1, CD28, endogenously expressed on Jurkat/IL2 reporter cells (human, UniProt P10747 19-220); assay: flow cytometry on Jurkat/IL2 reporter cells (endogenous CD28); PE anti-human Fc
T1 construct: Endogenous CD28 of Jurkat/IL2 reporter cells

CD96 [2] = target: T2, CD96 (UniProt P40200 22-585, limits assumed); assay: flow cytometry on CD96-expressing cells
T2 construct: whole, on cells
T2 sequence (looked up): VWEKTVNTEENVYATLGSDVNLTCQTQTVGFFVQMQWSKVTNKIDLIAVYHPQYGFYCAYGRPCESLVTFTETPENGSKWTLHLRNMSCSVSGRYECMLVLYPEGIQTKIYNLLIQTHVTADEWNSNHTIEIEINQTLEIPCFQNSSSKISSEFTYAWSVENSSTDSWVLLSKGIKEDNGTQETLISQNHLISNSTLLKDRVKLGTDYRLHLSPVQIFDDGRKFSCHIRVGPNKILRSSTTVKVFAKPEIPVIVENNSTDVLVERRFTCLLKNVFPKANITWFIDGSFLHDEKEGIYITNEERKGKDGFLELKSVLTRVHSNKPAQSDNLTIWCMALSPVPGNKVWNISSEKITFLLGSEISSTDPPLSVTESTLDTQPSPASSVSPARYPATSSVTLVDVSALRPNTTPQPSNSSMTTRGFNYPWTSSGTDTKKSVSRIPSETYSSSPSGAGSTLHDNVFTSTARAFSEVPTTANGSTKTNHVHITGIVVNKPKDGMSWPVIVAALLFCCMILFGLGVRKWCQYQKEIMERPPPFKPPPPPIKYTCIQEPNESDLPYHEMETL

CD96 [3] = target: T2, CD96; assay: flow cytometry on CD96-expressing cells; ratio to unmodified CD155 Fc fusion
CD226 [4] = target: T3, CD226 (Homo sapiens (Human), UniProt Q15762 19-336); assay: flow cytometry on CD226-transfected Expi293 cells; ratio to unmodified CD155 Fc fusion
T3 construct: also called CD226 tfxn
T3 sequence: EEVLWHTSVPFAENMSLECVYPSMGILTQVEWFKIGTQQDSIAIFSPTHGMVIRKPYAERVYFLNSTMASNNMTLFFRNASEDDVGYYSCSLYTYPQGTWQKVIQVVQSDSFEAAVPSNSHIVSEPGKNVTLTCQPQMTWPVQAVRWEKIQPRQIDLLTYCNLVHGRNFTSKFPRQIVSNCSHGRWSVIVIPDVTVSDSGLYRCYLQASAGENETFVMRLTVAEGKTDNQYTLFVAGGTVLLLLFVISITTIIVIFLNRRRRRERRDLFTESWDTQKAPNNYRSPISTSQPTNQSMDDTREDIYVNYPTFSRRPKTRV

TIGIT [5] = target: T4, TIGIT (Homo sapiens (Human), UniProt Q495A1 23-244); assay: flow cytometry on TIGIT-transfected Expi293 cells
T4 construct: also called TIGIT tfxn
T4 sequence: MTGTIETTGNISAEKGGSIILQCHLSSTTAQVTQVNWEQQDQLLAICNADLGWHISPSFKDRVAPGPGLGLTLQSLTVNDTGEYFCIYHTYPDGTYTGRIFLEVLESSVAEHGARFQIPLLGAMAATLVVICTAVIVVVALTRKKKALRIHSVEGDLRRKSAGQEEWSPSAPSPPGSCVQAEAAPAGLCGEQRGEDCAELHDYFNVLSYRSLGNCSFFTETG

CD226 [6] = target: T3, CD226; assay: flow cytometry on CD226-transfected Expi293 cells
TIGIT [7] = target: T4, TIGIT; assay: flow cytometry on TIGIT-transfected Expi293 cells; ratio to unmodified CD155 Fc fusion
[8] = target: T5, human CTLA-4 (CTLA4), expressed on CHO cells (human, UniProt P16410 36-223); assay: flow cytometry on CHO cells stably expressing human CTLA-4; PE anti-human Fc
T5 construct: Full-length surface expression construct transduced by lentivirus into CHO cells; also called huCTLA4

[9] = target: T6, human PD-L1, expressed on CHO cells (human, UniProt Q9NZQ7 19-290); assay: flow cytometry on CHO cells stably expressing human PD-L1; MFI relative to WT CD80 ECD-Fc (R&D)
T6 construct: Full-length surface expression construct transduced by lentivirus into CHO cells; also called huPD-L1; CD274

[10] = target: T6, human PD-L1, expressed on CHO cells; assay: flow cytometry on CHO cells stably expressing human PD-L1; PE anti-human Fc
[11] = target: T5, human CTLA-4 (CTLA4), expressed on CHO …; assay: flow cytometry on CHO cells stably expressing human CTLA-4; MFI relative to WT CD80 ECD-Fc (R&D)
[12] = target: T6, human PD-L1, expressed on CHO cells; assay: flow cytometry; ratio of MFI on PD-L1 CHO cells to MFI on Jurkat (CD28) cells
[13] = target: T1, CD28, endogenously expressed on …; assay: flow cytometry on Jurkat/IL2 reporter cells (endogenous CD28); MFI relative to WT CD80 ECD-Fc (R&D)
human CD28 [14] = target: T7, human CD28 (human, UniProt P10747 19-220); assay: flow cytometry, Jurkat/IL2 reporter cells (endogenous CD28)
human CTLA4 [15] = target: T8, human CTLA4 (human, UniProt P16410 36-223); assay: flow cytometry, CHO cells expressing huCTLA4
T8 construct: also called huCTLA4

human PD-L1 [16] = target: T9, human PD-L1 (human, UniProt Q9NZQ7 19-290); assay: flow cytometry, CHO cells expressing huPD-L1
T9 construct: also called huPD-L1; CD274
Target sequence in this assay (Q9NZQ7 19-290): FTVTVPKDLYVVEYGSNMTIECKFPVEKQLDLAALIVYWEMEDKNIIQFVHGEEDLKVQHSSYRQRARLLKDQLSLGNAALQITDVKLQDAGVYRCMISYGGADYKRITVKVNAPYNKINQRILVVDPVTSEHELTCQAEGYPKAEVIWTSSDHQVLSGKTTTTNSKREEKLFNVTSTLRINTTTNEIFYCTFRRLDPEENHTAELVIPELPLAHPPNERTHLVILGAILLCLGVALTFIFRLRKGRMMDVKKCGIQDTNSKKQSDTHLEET

human PD-L1 [17] = target: T9, human PD-L1; assay: flow cytometry; PD-L1 MFI over CD28 MFI at 33.3 nM
human CD28 [18] = target: T7, human CD28; assay: flow cytometry, Jurkat/IL2 reporter cells (endogenous CD28); MFI against WT CD80 IgV-Fc
human CTLA4 [19] = target: T8, human CTLA4; assay: flow cytometry, CHO cells expressing huCTLA4; MFI against WT CD80 IgV-Fc
human PD-L1 [20] = target: T9, human PD-L1; assay: flow cytometry, CHO cells expressing huPD-L1; MFI against WT CD80 IgV-Fc
[21] = target: T10, human PD-L1, expressed on cells (human, UniProt Q9NZQ7 19-290); assay: flow cytometry on CD14+ monocytes (monocyte-expressed PD-L1) of PBMC cultured overnight with anti-CD3 and anti-CD28 (FIG. 19B)
T10 construct: On CHO/PD-L1, K562/OKT3/PD-L1 and CHO/OKT3/PD-L1 aAPC, huPD-L1-transduced MC38 cells, or primary human monocytes; also called huPD-L1; hPD-L1

[22] = target: T11, human CD28, on Jurkat/IL2 reporter cells or primary human T cells (human, UniProt P10747 19-220); assay: flow cytometry on unactivated primary human pan T cells (CD28+), anti-human IgG detection (FIG. 19A)
T11 construct: Endogenous CD28 of Jurkat cells or of primary human T cells

T5 sequence (P16410 36-223): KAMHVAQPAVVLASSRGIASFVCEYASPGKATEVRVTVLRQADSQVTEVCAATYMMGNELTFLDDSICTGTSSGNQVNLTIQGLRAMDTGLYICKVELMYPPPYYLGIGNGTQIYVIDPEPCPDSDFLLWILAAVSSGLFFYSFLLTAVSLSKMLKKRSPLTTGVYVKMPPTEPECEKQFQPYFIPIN
T8 sequence (P16410 36-223): as above
T6 sequence (Q9NZQ7 19-290): as the sequence (Q9NZQ7 19-290) above
T10 sequence (Q9NZQ7 19-290): as above

B1: WT CD80 ECD-Fc (R&D) (Fc fusion)
chain: VIHVTKEVKEVATLSCGHNVSVEELAQTRIYWQKEKKMVLTMMSGDMNIWPEYKNRTIFDITNNLSIVILALRPSDEGTYECVVLKYEKDAFKREHLAEVTLSVKADFPTPSISDFEIPTSNIRRIICSTSGGFPEPHLSWLENGEELNAINTTVSQDPETELYAVSSKLDFNMTTNHSFMCLIKYGHLRVNQTFNWNTTKQEHFPDN
notes: Bought from R&D Systems; also called unmodified CD80-ECD-Fc fusion molecule (R&D Systems, USA); wild-type CD80-ECD-Fc; not shown: Fc and any linker of the bought R&D Systems protein are not described
MFI at 33.3 nM [1]: 18000 MFI

B5: variant CD80 IgV-Fc E35D/D46E/M47V/V68M/D90G/K93E (Fc fusion, not shown: small tags and cut ends; a dimerising Fc or GST)
chain: VIHVTKEVKEVATLSCGHNVSVEELAQTRIYWQKDKKMVLTMMSGEVNIWPEYKNRTIFDITNNLSIMILALRPSDEGTYECVVLKYEKGAFEREHLAEVTLSVKAD
notes: Fc fusion of the variant IgV
MFI at 33.3 nM [8]: 273000 MFI
Fold change to WT CD80 [9]: 6.06 fold
MFI at 33.3 nM [1]: 27100 MFI
MFI at 33.3 nM [10]: 71900 MFI
Fold change to WT CD80 [11]: 1.74 fold
Ratio of PDL1:CD28 [12]: 3 ratio
Fold change to WT CD80 [13]: 1.5 fold

B9: variant CD80 IgV-Fc E35D/M42V/M47V/E52D/L85Q (Fc fusion, not shown: small tags and cut ends; a dimerising Fc or GST)
chain: B5 chain with M42V, E46D, E52D, M68V, L85Q, G90D, E93K
notes: Fc fusion of the variant IgV
MFI at 33.3 nM [8]: 226000 MFI
Fold change to WT CD80 [9]: 1 fold
MFI at 33.3 nM [10]: 11900 MFI
Fold change to WT CD80 [11]: 1.44 fold
Ratio of PDL1:CD28 [12]: 9 ratio

B11: CD80 variant E35D/M47V/N48K/V68M/K89N IgV (SEQ ID NO: 2250)-Fc (inert) (Fc fusion)
chain: VIHVTKEVKEVATLSCGHNVSVEELAQTRIYWQKDKKMVLTMMSGDVKIWPEYKNRTIFDITNNLSIMILALRPSDEGTYECVVLKYENDAFKREHLAEVTLSVKADGSGGGGSEPKSSDKTHTCPPCPAPEAEGAPSVFLFPPKPKDTLMISRTPEVTCVVVDVSHEDPEVKFNWYVDGVEVHNAKTKPREEQYNSTYRVVSVLTVLHQDWLNGKEYKCKVSNKALPAPIEKTISKAKGQPREPQVYTLPPSREEMTKNQVSLTCLVKGFYPSDIAVEWESNGQPENNYKTTPPVLDSDGSFFLYSKLTVDKSRWQQGNVFSCSVMHEALHNHYTQKSLSLSPG
notes: also called E35D/M47V/N48K/V68M/K89N CD80 IgV-Fc; CD80 vIgD-Fc
binding result [21]: binds
binding result [22]: binds

B12: CD80 variant E35D/D46V/M47L/V68M/L85Q/E88D IgV (SEQ ID NO: 2280)-Fc (inert) (Fc fusion)
chain: B11 chain with D46V, V47L, K48N, L85Q, E88D, N89K
notes: also called E35D/D46V/M47L/V68M/L85Q/E88D CD80 IgV-Fc; CD80 vIgD-Fc
binding result [21]: binds
binding result [22]: binds

Second part, the binder after the results:

MFI (CD96 [2]): 2620 MFI
MFI parental ratio (CD96 [3]): 0.8 fold
MFI parental ratio (CD226 [4]): 1.1 fold
MFI (TIGIT [5]): 2910 MFI
MFI (CD226 [6]): 4170 MFI
MFI parental ratio (TIGIT [7]): 1.1 fold
B2: variant CD155 IgV-Fc A81V/L83P (Fc fusion, not shown: a dimerising Fc or GST)
chain: WPPPGTGDVVVQAPTQVPGFLGDSVTLPCYLQVPNMEVTHVSQLTWARHGESGSMAVFHQTQGPSYSESKRLEFVAARLGVEPRNASLRMFGLRVEDEGNYTCLFVTFPQGSRSVDIWLRVL

MFI (CD96 [2]): 3280 MFI
MFI parental ratio (CD96 [3]): 1.1 fold
MFI parental ratio (CD226 [4]): 1.4 fold
MFI (TIGIT [5]): 4070 MFI
MFI (CD226 [6]): 5140 MFI
MFI parental ratio (TIGIT [7]): 1.5 fold
B3: variant CD155 IgV-Fc P18L/L79V/F91S (Fc fusion, not shown: a dimerising Fc or GST)
chain: B2 chain with P18L, L79V, V81A, P83L, F91S

MFI (CD96 [2]): 2510 MFI
MFI parental ratio (CD96 [3]): 0.8 fold
MFI parental ratio (CD226 [4]): 1 fold
MFI (TIGIT [5]): 2940 MFI
MFI (CD226 [6]): 3590 MFI
MFI parental ratio (TIGIT [7]): 1.1 fold
B4: variant CD155 IgV-Fc P18T/F91S/R94H (Fc fusion, not shown: a dimerising Fc or GST)
chain: B2 chain with P18T, V81A, P83L, F91S, R94H

MFI at 33.3 nM (human CD28 [14]): 3610 MFI
MFI at 33.3 nM (human CTLA4 [15]): 17400 MFI
MFI at 33.3 nM (human PD-L1 [16]): 31100 MFI
B6: variant CD80 IgV-Fc M47L/V68M/A71G/D90G (Fc fusion, not shown: small tags and cut ends; a dimerising Fc or GST)
chain: B5 chain with D35E, E46D, V47L, A71G, E93K

MFI at 33.3 nM (human CD28 [14]): 324 MFI
MFI at 33.3 nM (human CTLA4 [15]): 24000 MFI
MFI at 33.3 nM (human PD-L1 [16]): 9950 MFI
Ratio of PDL1:CD28 (human PD-L1 [17]): 30.7 ratio
Fold change to WT CD80 (human CD28 [18]): 7.4 fold
Fold change to WT CD80 (human CTLA4 [19]): 17.7 fold
Fold change to WT CD80 (human PD-L1 [20]): 228 fold
B7: variant CD80 IgV-Fc H18Y/A26E/E35D/M47L (Fc fusion, not shown: small tags and cut ends; a dimerising Fc or GST)
chain: B5 chain with H18Y, A26E, E46D, V47L, M68V, G90D, E93K

MFI at 33.3 nM (human CD28 [14]): 3410 MFI
MFI at 33.3 nM (human CTLA4 [15]): 22300 MFI
MFI at 33.3 nM (human PD-L1 [16]): 30700 MFI
Ratio of PDL1:CD28 (human PD-L1 [17]): 9 ratio
Fold change to WT CD80 (human CD28 [18]): 77.8 fold
Fold change to WT CD80 (human CTLA4 [19]): 16.4 fold
Fold change to WT CD80 (human PD-L1 [20]): 703 fold
B8: variant CD80 IgV-Fc H18Y/V68M/A71G/D90G (Fc fusion, not shown: small tags and cut ends; a dimerising Fc or GST)
chain: B5 chain with H18Y, D35E, E46D, V47M, A71G, E93K

MFI at 33.3 nM [8]: 216000 MFI
Fold change to WT CD80 [9]: 3.93 fold
MFI at 33.3 nM [1]: 2460 MFI
MFI at 33.3 nM [10]: 46700 MFI
Fold change to WT CD80 [11]: 1.37 fold
Ratio of PDL1:CD28 [12]: 19 ratio
Fold change to WT CD80 [13]: 0.14 fold
B10: variant CD80 IgV-Fc E35D/M47L/A71G/L85M/F92Y (Fc fusion, not shown: small tags and cut ends; a dimerising Fc or GST)
chain: B5 chain with E46D, V47L, M68V, A71G, L85M, G90D, F92Y, E93K
notes: Fc fusion of the variant IgV

— patent US20210130436A1 (published 2021)
